In article PMC5127057 one finds stoichiometry of inhibition (SI) and kon data, which are given here for two substances.

Experiment [1] has as its target Human Neutrophil Elastase (human) (UniProt P08246). Briefly: stoichiometry of inhibition by titration of residual protease activity; 200 nM HNE or 300 nM PR3 mixed with varied Siropin, molar ratios from 0 to 10, 5 min at 37 °C, then substrate, absorbance at 405 nm for 30 min; x-intercept of linear regression; 20 mM Tris-HCl, 500 mM NaCl, pH 8.0.
In experiment [2] the target is Human Proteinase 3 (human) (UniProt P24158). The description is as above.
Experiment [3] addresses Human Neutrophil Elastase (human) (UniProt P08246). As to the kind of experiment: progress curve kinetics of protease inhibition; pseudo-first-order conditions, Siropin 1 to tenfold over protease, 200 µM substrate, HNE (200 nM) or PR3 (300 nM), 37 °C, 405 nm for 20 min; k obs against Siropin concentration, slope k'app corrected for substrate competition (Km 114 µM HNE, 270 µM PR3).

For experiment [4], the target named is Human Proteinase 3 (human) (UniProt P24158). Described as above.

UniProt P08246, sequence (P08246 30-267): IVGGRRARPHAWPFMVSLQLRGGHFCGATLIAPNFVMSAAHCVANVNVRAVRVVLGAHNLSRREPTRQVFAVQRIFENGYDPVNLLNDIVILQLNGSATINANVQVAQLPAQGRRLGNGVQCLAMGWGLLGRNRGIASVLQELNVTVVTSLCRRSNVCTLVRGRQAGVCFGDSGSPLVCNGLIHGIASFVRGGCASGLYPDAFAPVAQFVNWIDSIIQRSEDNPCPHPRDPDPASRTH
UniProt P24158, sequence (P24158 28-248): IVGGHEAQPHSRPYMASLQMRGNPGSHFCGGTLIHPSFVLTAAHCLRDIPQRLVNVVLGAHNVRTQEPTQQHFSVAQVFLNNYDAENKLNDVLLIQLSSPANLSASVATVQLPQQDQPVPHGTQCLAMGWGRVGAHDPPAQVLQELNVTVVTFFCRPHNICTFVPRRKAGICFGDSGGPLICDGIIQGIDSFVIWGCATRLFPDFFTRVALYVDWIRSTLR

Turning to Siropin 1 (natural protein), the stoichiometry of inhibition (SI) in experiment [1] worked out at 1.76; in experiment [2], 1.1. Besides, the kon – broadly, the second-order rate constant of association – in experiment [3] was found to be 84000 M⁻¹ s⁻¹; in experiment [4], 260000 M⁻¹ s⁻¹.

On to Siropin 2 (natural protein), for which the stoichiometry of inhibition (SI) in experiment [1] came to 1.82; in experiment [2], 1.1. In addition, the figures for the kon in experiment [3] and in experiment [4] were 77000 M⁻¹ s⁻¹ and 110000 M⁻¹ s⁻¹, respectively.
